This note sets out measurements from US20030138894A1 (Human Genome Sciences, published 2003).

B1: DX-513 Ac-GDLHACRPVRGDPWWACTLGDPEGGG-NH2 (peptide)
peptide: Ac-GDLHACRPVRGDPWWACTLGDPEGGG-NH2
modifications: disulfide 6-17 (inferred); also: oxidized peptide
notes: synthetic, TN12 library; also called ACEH2-D8
B2: DX-524 Ac-GSRIGCRDSRCNWWAPGEGGG-NH2 (peptide)
peptide: Ac-GSRIGCRDSRCNWWAPGEGGG-NH2
modifications: disulfide 6-11 (inferred); also: oxidized peptide
B3: DX-601 Ac-GDGFTCSPIRMFPWFRCDLGDPEGGG-NH2 (peptide)
peptide: Ac-GDGFTCSPIRMFPWFRCDLGDPEGGG-NH2
modifications: disulfide 6-17 (inferred); not fully specified; printed as Ac-GDGFTCSPIRMFPWFRCDLGDPEGGG-NH2
B4: DX-512 Ac-GDRLHCKPQRQSPWMKCQHLDPEGGG-NH2 (peptide)
peptide: Ac-GDRLHCKPQRQSPWMKCQHLDPEGGG-NH2
modifications: disulfide 6-17 (inferred); also: oxidized peptide
notes: synthetic, TN12 library; also called B-H7
B5: DX-529 Ac-AGWEVCHWAPMMCKHGGTEGGG-NH2 (peptide)
peptide: Ac-AGWEVCHWAPMMCKHGGTEGGG-NH2
modifications: disulfide 6-13 (inferred); also: oxidized peptide
B6: DX-599 Ac-GDRYLCLPQRDKPWKFCNWFDPEGGG-NH2 (peptide)
peptide: Ac-GDRYLCLPQRDKPWKFCNWFDPEGGG-NH2
modifications: disulfide 6-17 (inferred); also: oxidized peptide
B7: DX-530 Ac-AGQKECKFGYPHCLPWGTEGGG-NH2 (peptide)
peptide: Ac-AGQKECKFGYPHCLPWGTEGGG-NH2
modifications: disulfide 6-13 (inferred); also: oxidized peptide
B8: DX-602 Ac-GDFSPCKALRHSPWWVCPSGDPEGGG-NH2 (peptide)
peptide: Ac-GDFSPCKALRHSPWWVCPSGDPEGGG-NH2
modifications: disulfide 6-17 (inferred); also: oxidized peptide
B9: DX-525 Ac-GSRGFCRDSSCSFPAPGEGGG-NH2 (peptide)
peptide: Ac-GSRGFCRDSSCSFPAPGEGGG-NH2
modifications: disulfide 6-11 (inferred); also: oxidized peptide
B10: DX-531 Ac-AGSDWCGTWNNPCFHQGTEGGG-NH2 (peptide)
peptide: Ac-AGSDWCGTWNNPCFHQGTEGGG-NH2
modifications: disulfide 6-13 (inferred); also: oxidized peptide
B11: ACE-2 binding polypeptide YEFCHYAPQECKHM (peptide)
peptide: YEFCHYAPQECKHM
modifications: not fully specified (bridges); cysteine pairing not given here
B12: ACE-2 binding polypeptide VYFCFDWEQDCDEM (peptide)
peptide: VYFCFDWEQDCDEM
modifications: not fully specified (N-terminus, C-terminus, bridges); cysteine pairing not given here
B13: ACE-2 binding polypeptide YQFCFDWETTCWLD (peptide)
peptide: YQFCFDWETTCWLD
modifications: not fully specified (bridges); cysteine pairing not given here
B14: ACE-2 binding polypeptide FLLCFDWDIDWEYGCQHH (peptide)
peptide: FLLCFDWDIDWEYGCQHH
modifications: not fully specified (bridges); cysteine pairing not given here
B15: ACE-2 binding polypeptide YWFCFDWEEDANGHCGGN (peptide)
peptide: YWFCFDWEEDANGHCGGN
modifications: not fully specified (bridges); cysteine pairing not given here
B16: ACE-2 binding polypeptide YAMCFDWDECFLG (peptide)
peptide: YAMCFDWDECFLG
modifications: not fully specified (bridges); cysteine pairing not given here
B17: ACE-2 binding polypeptide YSHCSPLRYYPWWKCTYP (peptide)
peptide: YSHCSPLRYYPWWKCTYP
modifications: not fully specified (N-terminus, C-terminus, bridges); cysteine pairing not given here
B18: ACE-2 binding polypeptide SDWCGTWNNPCFHQ (peptide)
peptide: SDWCGTWNNPCFHQ
modifications: not fully specified (N-terminus, C-terminus, bridges); cysteine pairing not given here
B19: ACE-2 binding polypeptide WQFCFDWDLNCDLR (peptide)
peptide: WQFCFDWDLNCDLR
modifications: not fully specified (bridges); cysteine pairing not given here
B20: ACE-2 binding polypeptide QKECKFGYPHCLPW (peptide)
peptide: QKECKFGYPHCLPW
modifications: not fully specified (N-terminus, C-terminus, bridges); cysteine pairing not given here
B21: ACE-2 binding polypeptide LHACRPVRGDPWWACTLG (peptide)
peptide: LHACRPVRGDPWWACTLG
modifications: disulfide 4-15 (inferred); not fully specified (N-terminus, C-terminus)
B22: ACE-2 binding polypeptide RYLCLPQRDKPWKFCNWF (peptide)
peptide: RYLCLPQRDKPWKFCNWF
modifications: not fully specified (N-terminus, C-terminus, bridges); cysteine pairing not given here
B23: ACE-2 binding polypeptide FQLCFDWEEECEES (peptide)
peptide: FQLCFDWEEECEES
modifications: not fully specified (bridges); cysteine pairing not given here
B24: ACE-2 binding polypeptide WEVCHWAPMMCKHG (peptide)
peptide: WEVCHWAPMMCKHG
modifications: not fully specified (N-terminus, C-terminus, bridges); cysteine pairing not given here
B25: ACE-2 binding polypeptide WAVCFDWEN-CGDK (peptide)
peptide: WAVCFDWENCGDK
modifications: not fully specified (bridges); printed as W A V C F D W E N - C G D K; cysteine pairing not given here
notes: one position printed as '-'
B26: ACE-2 binding polypeptide MDHCTWYQPCVLK (peptide)
peptide: MDHCTWYQPCVLK
modifications: not fully specified (bridges); cysteine pairing not given here
B27: ACE-2 binding polypeptide YEECHWRPMACSTH (peptide)
peptide: YEECHWRPMACSTH
modifications: not fully specified (bridges); cysteine pairing not given here
B28: ACE-2 binding polypeptide DYLCFDWEACWLS (peptide)
peptide: DYLCFDWEACWLS
modifications: not fully specified (bridges); cysteine pairing not given here
B29: ACE-2 binding polypeptide EHNCTWWNPCWTT (peptide)
peptide: EHNCTWWNPCWTT
modifications: not fully specified (bridges); cysteine pairing not given here
B30: ACE-2 binding polypeptide WDHCNWAHPCSRK (peptide)
peptide: WDHCNWAHPCSRK
modifications: not fully specified (bridges); cysteine pairing not given here
B31: ACE-2 binding polypeptide LEMCEALFCVEF (peptide)
peptide: LEMCEALFCVEF
modifications: disulfide 4-9 (inferred); not fully specified (N-terminus, C-terminus)
B32: ACE-2 binding polypeptide FEICFDWEVCHEQ (peptide)
peptide: FEICFDWEVCHEQ
modifications: not fully specified (bridges); cysteine pairing not given here
B33: ACE-2 binding polypeptide RLHCKPQRQSPWMKCQHL (peptide)
peptide: RLHCKPQRQSPWMKCQHL
modifications: not fully specified (N-terminus, C-terminus, bridges); cysteine pairing not given here

Positions of bridges follow the written chain, without caps; N, C: chain ends. No end group written: not given here.

T1 sequence (Q9BYF1 18-740 limits assumed): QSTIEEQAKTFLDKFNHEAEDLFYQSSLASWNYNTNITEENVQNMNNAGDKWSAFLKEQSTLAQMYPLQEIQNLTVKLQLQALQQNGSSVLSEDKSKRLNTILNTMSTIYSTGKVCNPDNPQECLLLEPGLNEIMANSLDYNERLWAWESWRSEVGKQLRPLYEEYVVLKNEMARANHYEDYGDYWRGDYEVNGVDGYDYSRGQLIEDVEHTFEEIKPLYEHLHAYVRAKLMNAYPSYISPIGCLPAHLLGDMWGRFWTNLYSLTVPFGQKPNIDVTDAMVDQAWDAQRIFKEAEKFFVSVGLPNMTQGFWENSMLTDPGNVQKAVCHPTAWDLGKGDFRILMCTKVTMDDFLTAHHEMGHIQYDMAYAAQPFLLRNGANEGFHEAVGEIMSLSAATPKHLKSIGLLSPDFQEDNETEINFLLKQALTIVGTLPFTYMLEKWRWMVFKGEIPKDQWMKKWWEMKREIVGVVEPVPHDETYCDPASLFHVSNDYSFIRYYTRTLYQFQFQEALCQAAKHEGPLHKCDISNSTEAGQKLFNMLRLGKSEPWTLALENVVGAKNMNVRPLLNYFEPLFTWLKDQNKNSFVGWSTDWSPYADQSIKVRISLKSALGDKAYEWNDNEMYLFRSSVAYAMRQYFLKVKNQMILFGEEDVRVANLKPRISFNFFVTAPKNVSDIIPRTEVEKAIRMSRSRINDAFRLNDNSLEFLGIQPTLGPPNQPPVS

One test has as its target T1, recombinant human-ACE-2 (human, UniProt Q9BYF1 18-740, limits assumed). The experiment in a line: cell-based or functional assay.
With B1, the “IC50” value is 90 nM. Same read-out and setting: the figure for B2 is 600 nM. B3: the “IC50” value is 68 nM.

B4: the “IC50” value was 60 nM. Same read-out and setting: the figure for B5 is 400 nM; for B6 it is 140 nM. The same measure, in the same setting: the figure for B7 is 30000 nM; for B8 it is 120 nM; for B9 it is 1000 nM.

As to B10, the “IC50” value stood at 500 nM.

The target of a further test is T2, FLAG-tagged ACE-2 target (human, UniProt Q9BYF1 18-740).
T2 construct: range 1-740; obtained from Human Genome Sciences, Inc; also called FLAG-ACE-2; tagged human ACE-2; not shown: FLAG tag
T2 sequence (Q9BYF1 18-740 limits assumed): as above
The experiment in a line: phage ELISA on FLAG-ACE-2. On the procedure:
Phage enriched from the third round of selection were screened by ELISA for strong ACE-2 binders. Immulon 2 96-well plates (Dynatech) were coated with streptavidin for 1 hour at 37° C. and subsequently coated with anti-FLAG antibody for 1 hour at room temperature. Half of the plates were further coated with FLAG-ACE-2 as the target plates, and the other half of the plates were coated with FLAG peptide as background plates. The amount of each protein or peptide coated was 100 ng per well. The coated plates were then incubated for 1 hour at room temperature with 1:2 diluted overnight phage cultures that were made by inoculating phage from individual plaques into bacterial host cells. After being washed 7 times with PBST, the plates were incubated with HRP-conjugated anti-M13 antibody (Pharmacia) for 1 hour at room temperature, washed 5 times, developed with TMB peroxidase substrate solution (Kirkegaad & Perry Laboratories, Gaithersburg, Md.), and read at 630 nm on an ELISA plate reader.
For orientation: An ELISA detects its analyte on a solid surface through an enzyme-linked reagent.
For B11, the binding result is recorded as “binds”.

Consider B12, for which the binding result is “binds”. Still for that read-out and setting: for B13 the value was “binds”; for B14, “binds”; for B15, “binds”. Take B16: the binding result was “binds”.

Take B17: the binding result is listed as “binds”. Same read-out and setting: for B18 the value was “binds”; for B19, “binds”; for B20, “binds”. As for B21, the binding result is on record as “binds”. For the molecule B22, the binding result is “binds”. Consider B23, for which the binding result is listed as “binds”. On the same count and under the same terms, the entry for B24 is “binds”; for B25 it is “binds”.

For B26, the binding result is on record as “binds”. For B27, the binding result is recorded as “binds”. As to B28, the binding result was “binds”. B29: the binding result is reported as “binds”. Consider B30, for which the binding result was “binds”. On the same count and under the same terms, the entry for B31 is “binds”; for B32 it is “binds”.

For B33, the binding result was “binds”.

The target of the next test is T1, recombinant human-ACE-2. As to the kind of experiment: fluorometric ACE-2 activity assay, M-2195 substrate. The procedure:
Assay mixture was prepared first by pre-incubating (30 minutes, room temperature) the enzyme with the inhibitor (0.45 μg ([…]) ACE-2, 0-0.5 μM inhibitor rage, up to 90 […] volume with 100 mM TRIS pH 7.4, 0.1% Tween-20, 0.4% DMSO) in each well, in triplicate, by dispensing volumes using a repeat pipetter (Rainin) into a 96-well clear-bottom back plate (Costar, 07-200-590). […] Substrate stock (10 μL of 10× concentration) was added to each well to be tested in blocks of three vertically down the plate. The reaction was monitored on a Spectrafluor Plus (Tecan) at an excitation wavelength of 340 nm and an emission wavelength of 400 nm (+/−35 nm) every 30 seconds for a time period of 10 minutes.
Turning to B1, the inhibition constant Ki was found to be 150 nM. Same read-out and setting: for B4 the value was 150 nM.

One may read the IC50 as the concentration needed to halve the response being measured. By Ki is commonly meant a dissociation constant, usually derived from enzyme kinetics or from competition with a known ligand.
